What all share (assay type): biochemical
The target in one experiment is T1, Bovine spleen trypsin (Bos taurus, UniProt P00760).
T1 construct: purchased Sigma
T1 sequence (P00760 24-246): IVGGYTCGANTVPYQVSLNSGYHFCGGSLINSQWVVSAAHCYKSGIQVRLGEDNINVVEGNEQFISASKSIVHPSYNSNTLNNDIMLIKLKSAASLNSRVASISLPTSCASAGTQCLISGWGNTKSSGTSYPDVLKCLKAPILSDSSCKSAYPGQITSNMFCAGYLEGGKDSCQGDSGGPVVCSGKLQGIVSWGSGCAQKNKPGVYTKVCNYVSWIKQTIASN
Put plainly: Assay for trypsin inhibitor activity (Example 24). To be noted: enzyme 2 × 10^-7 M, substrate 1.0 × 10^-3 M. On the procedure:
(§1) The following assay method was used.
(§2) Buffer: 0.1M (2-hydroxyethyl)piperazine-N'-2-ethansulfonic acid (HEPES), 0.5M NaCl, pH 7.5.
(§3) Enzyme concentration: the following enzyme was dissolved in the above-mentioned buffer to a concentration 9 times that shown in Table 12.
B. Bovine spleen trypsin (Sigma)
Substrate solution: for the enzymes A, B, C, D and E, the following substrate a, b, c, d or e, respectively, was dissolved in a solution of DMSO+the above-mentioned buffer (1:9) (note, final concentration of DMSO was 10% in the buffer) to a concentration of 9 times that shown in Table 12. […]
(§4) To wells of an ELISA 96-well microtiter plate, were added 120 μl of the buffer and the 20 μl of a sample solution of (Arg^59 -Ala^107) SLPI obtained in Example 23, followed by 20 μl of the enzyme solution. The mixture was reacted at 37° C. for 10 minutes. Next, 20 μl of the substrate was added, and developed at 37° C. The developed color was measured by absorption at 405 nm.
(§5) As a control the same procedure was carried out using SLPI.

The target of experiment [1] is T2, polymorphonuclear leucocyte elastase from human sputum (Homo sapiens, UniProt P08246).
T2 construct: Polymorphonuclear leukocyte elastase from human sputum (EPC Co; Funakoshi Yakuhin); purchased EPC Co. (via Funakoshi Yakuhin); host or cells: human sputum
T2 sequence (P08246 30-267): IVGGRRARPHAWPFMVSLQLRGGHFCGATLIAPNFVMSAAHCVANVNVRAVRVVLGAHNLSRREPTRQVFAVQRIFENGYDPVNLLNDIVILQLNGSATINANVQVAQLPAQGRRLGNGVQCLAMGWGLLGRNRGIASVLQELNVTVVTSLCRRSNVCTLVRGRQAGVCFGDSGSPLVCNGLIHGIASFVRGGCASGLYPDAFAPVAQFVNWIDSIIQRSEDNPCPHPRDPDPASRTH
As to the kind of experiment: Assay for elastase inhibitor activity (Example 24). Particulars: enzyme 2 × 10^-8 M, substrate 3.0 × 10^-4 M. On the procedure:
as §1, §2, §3
(§6) A. Polymorphonuclear leucocyte elastase from human sputum (EPC Co., Funakoshi Yakuhin)
Substrate solution: for the enzymes A, B, C, D and E, the following substrate a, b, c, d or e, respectively, was dissolved in a solution of DMSO+the above-mentioned buffer (1:9) (note, final concentration of DMSO was 10% in the buffer) to a concentration of 9 times that shown in Table 12.
(§7) a. MeO-Suc-Ala-Ala-Pro-Val-pNA (Bachem) […]
as §4, §5

Experiment [2] addresses T3, Human plasma plasmin (Homo sapiens, UniProt P00747).
T3 construct: (6) Human plasma plasmin (Kabi, Daiichi Kagaku Yakuhin); purchased Kabi (via Daiichi Kagaku Yakuhin); host or cells: human plasma
Put plainly: Assay for plasmin inhibitory activity (Example 25). To be noted: final concentration up to ×10^-5 M; enzyme 1.0 × 10^-7 M. The protocol: G. Human plasma plasmin (sigma)
Plasmin: 50 mM Tris-HCl, 100 mM NaCl (pH 7.4) […]
(§8) Substrate solution: for the enzymes F, G, H and I, the following substrate f, g, h or i, respectively, was dissolved to a final concentration shown in Table 14.
g. H.D-Val-Leu-Lys-pNA (Kabi Vitrum)
(§9) To wells of an ELISA 96-well microtiter plate, were added a solution of (Arg^59 -Ala^107) SLPI obtained in Example 23 and then the enzyme solution, and the mixture was incubated at 37° C. for 10 minutes. Next, the substrate solution was added to develop the color, whose absorption was then measured at 405 nm. As a control, SLPI was used.

Experiment [3] has as its target T4, Human plasma kallikrein (Homo sapiens, UniProt P03952).
T4 construct: (7) Human plasma kallikrein (Kabi, Daiichi Kagaku Yakuhin); purchased Kabi (via Daiichi Kagaku Yakuhin); host or cells: human plasma
As to the kind of experiment: Assay for kallikrein inhibitory activity (Example 25). Particulars: final concentration up to ×10^-5 M; enzyme 1.0 × 10^-7 M. On the procedure:
H. Human plasma kallikrein (Protogene, Funakoshi Yakuhin)
Kallikrein: 50 mM Tris-HCl, 361 mM NaCl, 0.01 mg/ml polybrene (pH 7.8) […]
as §8
h. H.D-Pro-Phe-Arg-pNA (Kabi Vitram)
as §9

The subject of a further experiment is Porcine FXa. As to the kind of experiment: Assay for Fxa inhibitory activity (Example 25). To be noted: final concentration up to ×10^-5 M; enzyme 1.0 × 10^-8 M. On the procedure: I. Porcine FXa (Daichi Seiyaku)
(§10) Buffer: Buffer solution for each enzyme is as follow. Thrombin and FXa: 50 mM Tris-HCl, 7.5 mM EDTA-2Na, 175 mM NaCl (pH 8.4) […]
as §8
i. Ratio 1:1 mixture of the following compounds: [drawing 5]
as §9

Experiment [4] has as its target T5, Human plasma thrombin (Homo sapiens, UniProt P00734).
T5 construct: (5) Human plasma thrombin (Kabi, Daiichi Kagaku Yakuhin); purchased Kabi (via Daiichi Kagaku Yakuhin); host or cells: human plasma
Put plainly: Assay for thrombin inhibitory activity (Example 25). Particulars: final concentration up to ×10^-5 M; enzyme 3 × 10^-9 M. On the procedure:
F. Human plasma thrombin (Sigma)
as §10, §8
f. H.D-Phe-Pip-Arg-pNA (Kabi Vitrum)
as §9

For experiment [5], the system named is polymorphonuclear leucocyte elastase from human sputum. As to the kind of experiment: Inhibitory constant (Ki) assay, elastase (Example 26). Particulars: from Table 16. On the procedure: Method for assay is as follow.
Buffer: 0.1M N-(2-hydroxyethyl)piperazine-N'-2-ethanesulfonic acid (HEPES), 1.0M NaCl, 0.1% polyethylene glycol (pH 7.5)
Enzyme solution: the following enzyme was dissolved in the above-mentioned buffer to a concentration 9 times that shown in Table 15.
as §6
Substrate solution: for the enzymes A and B, the following substrate a or b was dissolved in a solution of DMSO+the above-mentioned buffer (1:9), or in DMSO, respectively.
as §7
To wells of an ELISA 96-well microtiter plate, were added 120 μl of the buffer, 20 μl of a sample solution of (Arg^59 -Ala^107) SLPI obtained in Example 23, and 20 μl of the enzyme solution in this order, an the mixture was reacted at 37° C. for 1 hour. Next, 20 μl of the substrate was added to develop at 25° C. Absorption of the developed color was measured at 405 nm. As a control, SLPI was used.
On the basis of the result thus obtained, an inhibitory constant (Ki) of (Arg^59 -Ala^107) SLPI of the present invention was calculated according to the method of Henderson (Henderson, P. J. F. (1972), Biochem. J. 127, 321-333).

Experiment [6] addresses T4, Human plasma kallikrein. As to the kind of experiment: Serine protease inhibitory assay, Example 12: kallikrein. Particulars: read-out: concentration of inhibitory protein which exhibits a 50% inhibition; enzyme 10^-8 M; H-D-Pro-Phe-Arg-pNA 0.1 mM; 37° C. The protocol: (§11) Assay of serine protease inhibitory activity of active-type (Asn^55 -Ala^107) SLPI fragment polypeptide
(§12) The active-type (Asn^55 -Ala^107) SLPI fragment polypeptide obtained by refolding by the procedure shown in Example 11 as measured to determine its inhibitory activity to various serine proteases. The assay result thereof is shown as follows.
(§13) Enzyme solution: The following enzymes were dissolved in the above-mentioned buffer solutions at a concentration ten-times higher than the concentration shown in Table 4.
(7) Human plasma kallikrein (Kabi, Daiichi Kagaku Yakuhin)
(§14) Substrate solution: For the above-mentioned enzymes (1) to (7), the following substrates (1) to (7), respectively, were dissolved in dimethyl sulfoxyde to a concentration of 10 mM to prepare stock solutions, which were then dissolved in the above-mentioned buffer solution to concentration ten-times higher than final concentrations, to prepare substrate solutions. […]
(§15) To each well of a 96-well ELISA microplate were added 140 μl of the above-mentioned buffer, 20 μl of a test solution, and 20 μl of the enzyme solution, and the mixture was stirred at 37° C. for 30 minutes. Next, 20 μl of the substrate solution was added to the well, the mixture was stirred at 37° C. for one hour to develop same, and the absorbance at 405 nm was measured.

Experiment [7] concerns the target T3, Human plasma plasmin. As to the kind of experiment: Serine protease inhibitory assay, Example 12: plasmin. To be noted: read-out: concentration of inhibitory protein which exhibits a 50% inhibition; enzyme 10^-8 M; H-D-Val-Leu-Lys-pNA 0.1 mM; 37° C. The protocol:
as §11, §12, §13
(6) Human plasma plasmin (Kabi, Daiichi Kagaku Yakuhin)
as §14, §15

The target of experiment [8] is T6, Porcine pancreatic elastase (Sus scrofa, UniProt P00772).
T6 construct: (4) Porcine pancreatic elastase (Sigma); purchased Sigma; host or cells: porcine pancreas
T6 sequence (P00772 27-266): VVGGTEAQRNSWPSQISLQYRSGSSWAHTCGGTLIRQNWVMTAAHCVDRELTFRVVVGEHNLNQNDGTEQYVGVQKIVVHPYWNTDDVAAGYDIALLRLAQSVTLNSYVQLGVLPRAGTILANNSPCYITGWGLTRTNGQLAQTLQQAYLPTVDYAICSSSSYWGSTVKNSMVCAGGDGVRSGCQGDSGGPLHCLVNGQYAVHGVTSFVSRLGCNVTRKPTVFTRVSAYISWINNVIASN
Put plainly: Serine protease inhibitory assay, Example 12: porcine elastase. To be noted: read-out: concentration of inhibitory protein which exhibits a 50% inhibition; enzyme 6 × 10^-9 M; Suc-Ala-Ala-Ala-pNA 0.1 mM; 37° C. The protocol: as §11, §12, §13
(4) Porcine pancreatic elastase (Sigma)
as §14, §15

For the next experiment, the target named is T7, Calf pancreatic trypsin (Bos taurus, UniProt P00760).
T7 construct: (2) Calf pancreatic trypsin (Sigma); purchased Sigma; host or cells: calf pancreas
T7 sequence (P00760 24-246): T1 sequence (P00760 24-246)
As to the kind of experiment: Serine protease inhibitory assay, Example 12: trypsin. To be noted: read-out: concentration of inhibitory protein which exhibits a 50% inhibition; enzyme 10^-7 M; Bz-Arg-pNA 1.0 mM; 37° C. On the procedure:
as §11, §12, §13
(2) Calf pancreatic trypsin (Sigma)
as §14, §15
Moreover, an inhibitory constant Ki of the present (Asn^55 -Ala^107) SLPI was calculated on the basis of the above data by a method of Dixon, M. and Webb, E. C. (1979), Enzyme, Longman or a method of Henderson, P. J. F. (1972) Biochem. J., 127, 321-333.

Experiment [9] addresses T8, polymorphonuclear leukocyte elastase from human sputum (Homo sapiens, UniProt P08246).
T8 construct: Polymorphonuclear leukocyte elastase from human sputum (EPC Co; Funakoshi Yakuhin); purchased EPC Co. (via Funakoshi Yakuhin); host or cells: human sputum
T8 sequence (P08246 30-267): T2 sequence (P08246 30-267)
Put plainly: Serine protease inhibitory assay, Example 12: human elastase. Particulars: read-out: concentration of inhibitory protein which exhibits a 50% inhibition; enzyme 10^-9 M; MeO-Suc-Ala-Ala-Pro-Val-pNA 0.3 mM; 37° C. The protocol:
as §15

In experiment [10] the target is T5, Human plasma thrombin. Put plainly: Serine protease inhibitory assay, Example 12: thrombin. To be noted: read-out: concentration of inhibitory protein which exhibits a 50% inhibition; enzyme 10^-11 M; H-D-Phe-Pip-Arg-pNA 0.1 mM; 37° C. On the procedure: as §11, §12, §13
(5) Human plasma thrombin (Kabi, Daiichi Kagaku Yakuhin)
as §14, §15

The target of experiment [11] is T9, Calf pancreatic chymotrypsin (Bos taurus, UniProt P00766).
T9 construct: (3) Calf pancreatic chymotrypsin (Sigma); purchased Sigma; host or cells: calf pancreas
As to the kind of experiment: Serine protease inhibitory assay, Example 12: chymotrypsin. To be noted: read-out: concentration of inhibitory protein which exhibits a 50% inhibition; enzyme 10^-8 M; Suc-Ala-Ala-Pro-Phe-pNA 0.1 mM; 37° C. On the procedure: as §11, §12, §13
(3) Calf pancreatic chymotrypsin (Sigma)
as §14, §15

Consider three substances from patent publication US5851983A, “Elastase inhibitory polypeptide and process for production thereof by recombinant gene technology” (Teijin Limited, priority 1987, dated 1998).

T3 sequence (P00747 581-810 limits assumed): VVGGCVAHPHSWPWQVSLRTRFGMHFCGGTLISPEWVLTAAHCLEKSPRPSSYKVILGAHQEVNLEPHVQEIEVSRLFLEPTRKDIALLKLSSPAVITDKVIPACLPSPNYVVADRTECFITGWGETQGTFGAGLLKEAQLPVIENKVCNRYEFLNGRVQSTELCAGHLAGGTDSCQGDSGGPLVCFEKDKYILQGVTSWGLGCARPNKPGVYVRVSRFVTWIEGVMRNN
T3 sequence (P00747 97-580 partner limits assumed): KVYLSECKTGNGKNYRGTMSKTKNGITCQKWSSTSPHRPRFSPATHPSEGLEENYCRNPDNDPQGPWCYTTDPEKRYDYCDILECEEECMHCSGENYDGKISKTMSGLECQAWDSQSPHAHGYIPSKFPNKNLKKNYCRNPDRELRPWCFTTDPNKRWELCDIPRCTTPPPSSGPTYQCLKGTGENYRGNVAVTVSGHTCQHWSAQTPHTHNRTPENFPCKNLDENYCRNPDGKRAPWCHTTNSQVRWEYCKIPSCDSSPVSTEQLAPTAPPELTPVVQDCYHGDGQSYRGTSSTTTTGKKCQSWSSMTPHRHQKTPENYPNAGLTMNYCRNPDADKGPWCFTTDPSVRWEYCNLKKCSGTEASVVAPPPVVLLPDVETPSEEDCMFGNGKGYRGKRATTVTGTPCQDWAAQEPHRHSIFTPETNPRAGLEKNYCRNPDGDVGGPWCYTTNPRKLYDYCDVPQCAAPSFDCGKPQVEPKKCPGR
T4 sequence (P03952 391-638 limits assumed): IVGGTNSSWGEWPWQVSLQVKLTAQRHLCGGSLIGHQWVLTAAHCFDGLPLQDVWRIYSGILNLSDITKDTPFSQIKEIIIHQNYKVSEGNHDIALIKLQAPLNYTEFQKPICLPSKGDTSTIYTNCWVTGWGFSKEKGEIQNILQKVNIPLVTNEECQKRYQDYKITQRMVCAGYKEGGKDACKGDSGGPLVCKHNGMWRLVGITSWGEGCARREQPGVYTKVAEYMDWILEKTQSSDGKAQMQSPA
T4 sequence (P03952 20-390 partner limits assumed): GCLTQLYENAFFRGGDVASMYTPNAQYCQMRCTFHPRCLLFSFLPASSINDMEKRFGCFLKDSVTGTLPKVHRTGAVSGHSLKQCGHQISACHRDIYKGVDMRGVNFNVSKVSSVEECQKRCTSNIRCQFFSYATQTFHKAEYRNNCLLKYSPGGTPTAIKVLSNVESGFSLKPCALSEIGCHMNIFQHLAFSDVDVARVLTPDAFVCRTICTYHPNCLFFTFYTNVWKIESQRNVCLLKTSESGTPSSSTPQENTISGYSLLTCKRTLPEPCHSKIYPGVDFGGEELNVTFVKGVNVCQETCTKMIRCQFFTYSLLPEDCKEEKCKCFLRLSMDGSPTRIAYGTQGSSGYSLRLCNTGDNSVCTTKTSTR

For “(Arg^59 -Ala^107) SLPI: polypeptide having an amino acid sequence starting with the 59th Arg and ending at the 107th Ala of SLPI (RKPGKCPVTYGQCLMLNPPNFCEMDGQCKRDLKCCMGMCGKSCVSPVKA)”, the IC50 in the experiment with Bovine spleen trypsin is 2000 nM; in experiment [1] it was 12 nM. Moreover, the “inhibitory activity to plasmin” value in the experiment with Human plasma plasmin [2] was “did not exhibit inhibitory activity”. The “inhibitory activity to kallikrein” value in the experiment with Human plasma kallikrein [3] is “did not exhibit inhibitory activity”. Also, the “inhibitory activity to FXa” value in the experiment on Porcine FXa is on record as “did not exhibit inhibitory activity”. In the experiment with Human plasma thrombin [4], the “inhibitory activity to thrombin” value was “did not exhibit inhibitory activity”. In addition, in experiment [5], the “relative ratio of inhibitory activity on trypsin to that on elastase (Ki(T)/Ki(E))” value is given as “about 14,000”.
As for Aprotinin, the IC50 is 70 nM on Human plasma kallikrein [6]; 5 nM on Human plasma plasmin [7]; more than 2000 nM in [8]; 100 nM at Calf pancreatic trypsin; 300 nM in experiment [9]; more than 2000 nM on Human plasma thrombin [10]. Further, in experiment [11], the IC50 was 50 nM.
“α1 -PI: α1 -AT (Sigma), inhibitory protein used as a positive control”: the IC50 with Human plasma kallikrein [6] is more than 2000 nM; with Human plasma plasmin [7] it was more than 2000 nM; in experiment [8], 300 nM; with Calf pancreatic trypsin it was 200 nM; in the experiment with Human plasma thrombin [10] it was more than 2000 nM; in experiment [11] it was 2000 nM.
